Test results: patent US7541169B2, “Sulfotransferase sequence variants” (Mayo Foundation for Medical Education and Research, priority 2001, dated 2009)

System: SULT1C1
Test: SULT1C1 enzyme activity assay: sulfate conjugation of 4-nitrophenol with 35S-PAPS, COS-1 cytosol of recombinant allozymes
Format: biochemical, human
Conditions: for Km: apparent Km for PAPS, in the presence of 10 mM 4-NP, six PAPS concentrations 0.0625 μM to 2 μM; for % WT activity: recombinant allozyme in COS-1 cytosol, 10 mM 4-NP, 0.4 μM 35S-PAPS, pH 7.4, percentage of wild type SULT1C1 enzyme activity; for activity relative to the reference (wild type) SULT1C1: statement in words
Procedure: In some embodiments, activity of SULT1C1 polypeptides is altered relative to the reference SULT1C1. […] Other allozymes can have increased activity relative to the reference SULT1C1. Activity of SULT1C1 polypeptides can be assessed in vitro using a sulfate acceptor substrate such as 4-nitrophenol (4-NP, Sigma Chemical Co., St. Louis, Mo.) and a donor sulfate molecule such as PAPS. In general, recombinant SULT1C1 polypeptides can be incubated at 37° C. with 10 mM of sulfate acceptor substrate in a potassium phosphate buffer (5 mM, pH 7.4) and 0.4 μM labeled PAPS (e.g., ^35S-PAPS from New England Nuclear Life Science Products, Inc., Boston Mass.). Reactions can be stopped by precipitating PAPS and SULT1C1 polypeptide (e.g., with barium hydroxide, barium acetate, and zinc sulfate). After centrifugation of the reaction, radioactivity in the supernatant is assessed. SULT1C1 activity is expressed as nmoles of sulfate conjugated product formed per hour of incubation. See, Campbell, N. R. C. et al., Biochem. Pharmacol., 36:1435-1446 (1987).
Other biochemical properties of allozymes, such as apparent Km values, also can be altered relative to the reference SULT1C1. Apparent Km values can be calculated, for example, by using the method of Wilkinson with a computer program written by Cleland. Wilkinson, Biochem. J., 80:324-332 (1961); and Cleland, Nature, 198:463-365 (1963). As described herein, the apparent Km values for PAPS vary 7-fold among the allozymes tested (Asp60Ala, Arg73Gln, Phe193Leu, Asp200Val, Thr239Ala, and Ser255Ala).
COS-1 Cell Expression: Nine different SULT1C1 expression constructs were made using the p91023(B) expression vector. See, Wong et al., Science (1985) 228:810-815, for a description of the p91023(B) vector. Eight of the constructs were designed to express variant SULT1C1 polypeptides, while the remaining construct was designed to express a wild type SULT1C1. All SULT1C1 cDNA sequences used to create the expression constructs were created by site directed mutagenesis using the method described by Ho et al., Gene (1989) 77(l):51-9. Each SULT1C1 cDNA was amplified by PCR and subcloned into the EcoRI restriction site of the eukaryotic expression vector p91023(B). After subcloning, all inserts were sequenced to assure that no spurious nucleotide point mutations had been introduced during the PCR amplifications. […] As a control, a transfection was also performed with “empty” p91023(B), i.e., vector lacking an insert, to make it possible to correct for endogenous COS-1 cell SULT activity. The control plasmid pSV-β-galactosidase (Promega, Madison, Wis.) was cotransfected with each SULT1C1 construct to make it possible to correct for transfection efficiency. Two independent transfections, each consisting of three separate plates, were performed with each of the expression constructs. After 48 hours in culture, the transfected cells were harvested and high speed supernatant (HSS) cytosol preparations were prepared as described by Wood, T. C. et al., Biochem. Biophys. Res. Commun., 198:1119-1127 (1994). Aliquots of these cytosol preparations were stored at −80° C. prior to assay.
Enzyme Assays: β-galactosidase activity in each of the COS-1 HSS preparations was measured with the β-galactosidase Enzyme Assay System (Promega, Madison, Wis.). SULT1C1 enzyme activity was measured with an assay that involves sulfate conjugation of a sulfate acceptor substrate, 4-nitrophenol (4-NP), in the presence of [^35S]-3′-phosphoadenosine-5′-phosphosulfate (PAPS), the sulfate donor for the reaction. See, Campbell, N. R. C. et al., Biochem. Pharmacol., 36:1435-1446 (1987). The HSS preparations of recombinant SULT1C1 variant proteins described above were used for the activity studies without any further purification. The protein concentration of each recombinant protein preparation was determined by the dye-binding method of Bradford with bovine serum albumin (BSA) as a standard. […]

B1: Asp60Ala: SULT1C1 polypeptide having an alanine at amino acid residue 60 in place of aspartic acid (protein)
chain: MALTSDLGKQIKLKEVEGTLLQPATVDNWSQIQSFEAKPDDLLICTYPKAGTTWIQEIVAMIEQNGDVEKCQRAIIQHRHPFIEWARPPQPSGVEKAKAMPSPRILKTHLSTQLLPPSFWENNCKFLYVARNAKDCMVSYYHFQRMNHMLPDPGTWEEYFETFINGKVVWGSWFDHVKGWWEMKDRHQILFLFYEDIKRDPKHEIRKVMQFMGKKVDETVLDKIVQETSFEKMKENPMTNRSTVSKSILDQSISSFMRKGTVGDWKNHFTVAQNERFDEIYRRKMEGTSINFCMEL
Km: 4 ± 0.47 µM
% WT activity: 13.9 ± 0.3%
activity relative to the reference (wild type) SULT1C1: reduced activity

B2: Asp200Val: SULT1C1 polypeptide having a valine at amino acid 200 in place of an aspartic acid (protein)
chain: MALTSDLGKQIKLKEVEGTLLQPATVDNWSQIQSFEAKPDDLLICTYPKAGTTWIQEIVDMIEQNGDVEKCQRAIIQHRHPFIEWARPPQPSGVEKAKAMPSPRILKTHLSTQLLPPSFWENNCKFLYVARNAKDCMVSYYHFQRMNHMLPDPGTWEEYFETFINGKVVWGSWFDHVKGWWEMKDRHQILFLFYEDIKRVPKHEIRKVMQFMGKKVDETVLDKIVQETSFEKMKENPMTNRSTVSKSILDQSISSFMRKGTVGDWKNHFTVAQNERFDEIYRRKMEGTSINFCMEL
Km: 1.2 ± 0.12 µM
% WT activity: 48.1 ± 4.2%
activity relative to the reference (wild type) SULT1C1: reduced activity

B3: Ser111Phe: SULT1C1 polypeptide having a phenylalanine at amino acid 111 in place of a serine (protein)
chain: MALTSDLGKQIKLKEVEGTLLQPATVDNWSQIQSFEAKPDDLLICTYPKAGTTWIQEIVDMIEQNGDVEKCQRAIIQHRHPFIEWARPPQPSGVEKAKAMPSPRILKTHLFTQLLPPSFWENNCKFLYVARNAKDCMVSYYHFQRMNHMLPDPGTWEEYFETFINGKVVWGSWFDHVKGWWEMKDRHQILFLFYEDIKRDPKHEIRKVMQFMGKKVDETVLDKIVQETSFEKMKENPMTNRSTVSKSILDQSISSFMRKGTVGDWKNHFTVAQNERFDEIYRRKMEGTSINFCMEL
% WT activity: 0%
activity relative to the reference (wild type) SULT1C1: reduced activity

B4: Thr239Ala: SULT1C1 polypeptide having an alanine at amino acid 239 in place of a threonine (protein)
chain: MALTSDLGKQIKLKEVEGTLLQPATVDNWSQIQSFEAKPDDLLICTYPKAGTTWIQEIVDMIEQNGDVEKCQRAIIQHRHPFIEWARPPQPSGVEKAKAMPSPRILKTHLSTQLLPPSFWENNCKFLYVARNAKDCMVSYYHFQRMNHMLPDPGTWEEYFETFINGKVVWGSWFDHVKGWWEMKDRHQILFLFYEDIKRDPKHEIRKVMQFMGKKVDETVLDKIVQETSFEKMKENPMANRSTVSKSILDQSISSFMRKGTVGDWKNHFTVAQNERFDEIYRRKMEGTSINFCMEL
Km: 1.14 ± 0.11 µM
% WT activity: 52.6 ± 1.7%
activity relative to the reference (wild type) SULT1C1: reduced activity

B5: Phe193Leu: SULT1C1 polypeptide having a leucine residue at amino acid 193 in place of a phenylalanine (protein)
chain: MALTSDLGKQIKLKEVEGTLLQPATVDNWSQIQSFEAKPDDLLICTYPKAGTTWIQEIVDMIEQNGDVEKCQRAIIQHRHPFIEWARPPQPSGVEKAKAMPSPRILKTHLSTQLLPPSFWENNCKFLYVARNAKDCMVSYYHFQRMNHMLPDPGTWEEYFETFINGKVVWGSWFDHVKGWWEMKDRHQILFLLYEDIKRDPKHEIRKVMQFMGKKVDETVLDKIVQETSFEKMKENPMTNRSTVSKSILDQSISSFMRKGTVGDWKNHFTVAQNERFDEIYRRKMEGTSINFCMEL
Km: 2.95 ± 0.27 µM
% WT activity: 39.3 ± 1.4%
activity relative to the reference (wild type) SULT1C1: reduced activity

B6: Asp200Val/ Thr239Ala: double variant SULT1C1 polypeptide with a valine at amino acid 200 and an alanine at amino acid 239 (protein)
chain: MALTSDLGKQIKLKEVEGTLLQPATVDNWSQIQSFEAKPDDLLICTYPKAGTTWIQEIVDMIEQNGDVEKCQRAIIQHRHPFIEWARPPQPSGVEKAKAMPSPRILKTHLSTQLLPPSFWENNCKFLYVARNAKDCMVSYYHFQRMNHMLPDPGTWEEYFETFINGKVVWGSWFDHVKGWWEMKDRHQILFLFYEDIKRVPKHEIRKVMQFMGKKVDETVLDKIVQETSFEKMKENPMANRSTVSKSILDQSISSFMRKGTVGDWKNHFTVAQNERFDEIYRRKMEGTSINFCMEL
Km: 1.82 ± 0.14 µM
% WT activity: 49.3 ± 2.8%
activity relative to the reference (wild type) SULT1C1: reduced activity

B7: Arg73Gln: SULT1C1 polypeptide having a glutamine at amino acid residue 73 in place of an arginine (protein)
chain: MALTSDLGKQIKLKEVEGTLLQPATVDNWSQIQSFEAKPDDLLICTYPKAGTTWIQEIVDMIEQNGDVEKCQQAIIQHRHPFIEWARPPQPSGVEKAKAMPSPRILKTHLSTQLLPPSFWENNCKFLYVARNAKDCMVSYYHFQRMNHMLPDPGTWEEYFETFINGKVVWGSWFDHVKGWWEMKDRHQILFLFYEDIKRDPKHEIRKVMQFMGKKVDETVLDKIVQETSFEKMKENPMTNRSTVSKSILDQSISSFMRKGTVGDWKNHFTVAQNERFDEIYRRKMEGTSINFCMEL
Km: 0.57 ± 0.15 µM
% WT activity: 14.5 ± 1.9%
activity relative to the reference (wild type) SULT1C1: reduced activity

B8: Ser255Ala: SULT1C1 polypeptide having an alanine at amino acid 255 in place of a serine (protein)
chain: MALTSDLGKQIKLKEVEGTLLQPATVDNWSQIQSFEAKPDDLLICTYPKAGTTWIQEIVDMIEQNGDVEKCQRAIIQHRHPFIEWARPPQPSGVEKAKAMPSPRILKTHLSTQLLPPSFWENNCKFLYVARNAKDCMVSYYHFQRMNHMLPDPGTWEEYFETFINGKVVWGSWFDHVKGWWEMKDRHQILFLFYEDIKRDPKHEIRKVMQFMGKKVDETVLDKIVQETSFEKMKENPMTNRSTVSKSILDQSISAFMRKGTVGDWKNHFTVAQNERFDEIYRRKMEGTSINFCMEL
Km: 0.56 ± 0.06 µM
% WT activity: 98.9 ± 5.9%
activity relative to the reference (wild type) SULT1C1: comparable to the reference SULT1C1
